Results as given in the DeepSol protein solubility set.

Experiment: soluble on expression in E. coli; label from the status in PepcDB or PDB records

Sequence | soluble on expression in E. coli
MQDLLTLRFLDTYDNILFIGNSGVGKTHLAVSIGLECIDRGLSCLFITSTELVNRLIRAHKRGTSETMLKKYSGYSVLIIDEVGYLPFSKEGSNLLFQLINMRYERKSTIVTTNIPLSQWSEIFGNKKLTNALLDRLVHHSKLIQITGPSYRMKSYSENKEVKSLEHHHHHH | soluble
MRLTDQKRESIVQAAIAEFGDRGFEITSMDRIAARAEVSKRTVYNHFPSKEELFAEMLQRLWNCAPPQSEVVYRPLVSLREQLLELLWGKMRNLTDSSFLDLARVVVGATIHSPERAQVWLARINEREETFSAWIRAAQKDGRLKPVDPGFAATQMHALLKSFAFWPQVTFNAALLTPQEQSNVVESALNMFLGWYEIPG | soluble
MGSDKIHHHHHHMQNATLPLPLQSPLLAASGENRVRHGFFTRQGGVSEGLYQGLNVGLGSHDEPEKVQENRRRVTQWFGLSADRLATVHQVHSPDVVVVDDNYDGNRPQADAMVTATPGFVLGVLSADCGPILFADAQAGVVGAAHAGWKGALFGVLENTIEAMVKLGASRERIAASLGPSISQDNYEVGPEYVARFTDIDPAYADYFAATERQGHALFDLKQFTIDRLTKAGVKAENLGLCTYPDEHRFYSYRRTTHRAEPDYGRQISAIAILED | not soluble
MSLDQIKIAYIGGGSQGWARSLMSDLSIDERMSGTVALYDLDFEAAQKNEVIGNHSGNGRWRYEAVSTLKKALSAADIVIISILPGSLDDMEVDVHLPERCGIYQSVGDTVGPGGIIRGLRAVPIFAEIARAIRDYAPESWVINYTNPMSVCTRVLYKVFPGIKAIGCCHEVFGTQKLLAEMVTERLGIEVPRREDIRVNVLGINHFTWITKASYRHIDLLPIFREFSAHYGESGYELEGECWRDSVFCSAHRVAFDLFETYGAIPAAGDRHLAEFLPGPYLKQPEVWKFHLTPISFRKQDRAEKRQETERLIVQQRGVAEKASGEEGVNIIAALLGLGELVTNVNMPNQGQVLNLPIQAIVETNAFITRNRVQPILSGALPKGVEMLAARHISNQEAVADAGLTKDTGLAFQAFLNDPLVQIDRSDAEQLFNDMLQCIMQSEGHHHHHH | soluble
MEKLVAYKRMPLWNKQTMPEAVQQKHNTKVGTWGKITVLKGALKFIELTEEGEVLAEHLFEAGADNPMAQPQAWHRVEAATDDVEWYLEFYCKPEDYFAKKYNTNPVHSEVLEAMQTVKQGKALDLGCGQGRNSLFLAQQDFDVTAVDQNGLALEILQSIVEQEDLDMPVGLYDINSASIEQEYDFIVSTVVLMFLQADRIPAIIQNMQEKTSVGGYNLIVCAMDTEDYPCSVNFPFTFKEGELADYYKDWELVKYNENPGHLHRRDENGNRIQLRFATLLAKKIK | not soluble
MQLISDRTSGAIHEIFGRDKALIGMIHCPPFPGAPRYRGETMDTIVDACLRDAERLVAGGLHGLVVENHGDIPFSKPDDIGPETAACLGVVTDRIRRAFGVPLGINVLANAPLPALAAAVAGGALFIRVNQWANAYVANEGFMEGRAAEAMRYRSLLRAEHVRIFADSHVKHGSHAIVADRSIPELTRDLAFFDADCIIATGQRTGDSATIAEIEEIGGATHLPLLVGSGVTEANVVEILKRTNGVIVASSLKEGGVWWNPVDPERVARFVAAAREGLDGLEHHHHHH | not soluble
SNAMIRNIVFDLGGVLIHLNREESIRRFKAIGVADIEEMLDPYLQKGLFLDLESGRKSEEEFRTELSRYIGKELTYQQVYDALLGFLEEISAEKFDYIDSLRPDYRLFLLSNTNPYVLDLAMSPRFLPSGRTLDSFFDKVYASCQMGKYKPNEDIFLEMIADSGMKPEETLFIDDGPANVATAERLGFHTYCPDNGENWIPAITRLLREQK | soluble
RNMDASPLAKRNSLQLFTDGQEKFQALFEDIRAAKETVHVEYYAFFNDTIGNQFLDVLIEKLHEGVEVYLIYDPWGSPGANKKFFARYVDAGGKVAPFITSRDMIRKTRLNYHLHRKIVVIDGKIGWTGGFNVGDQYLNVTEKFGYWRDTHIRLVGTAVFSLQEIFIMDWNASVKYPEERMTYHEKYFKLPEDHEVEHLSLQVVSDGPDSEEEILKSG | not soluble
GSSEDKITVHFINRDGETLTTKGKIGDSLLDVVVQNNLDIDGFGACEGTLACSTCHLIFEQHIFEKLEAITDEENDMLDLAYGLTDRSRLGCQICLTKAMDNMTVRVPDAVSDARESIDMGMNSSKIE | soluble
AVGTPITISVPSLPYANSASEIVLSQLRDIGFDVRLESTEFPSVWLSKVYKAKDYDMSVVAHVEARDIPNLFGNPDYYLGFDDEQVRELLAQADSGDADSYVSTMKKVVNRIMDQAGADTLFNLPNIVVTQPDVSGVPTNLVADGLVVSNISRSED | not soluble
MGVPAFFRWLTKKYPATVVNANEDRQRDQDGNRVPVDCTQPNPNFQEFDNLYLDMNGIIHPCTHPEDRPAPKNEDEMFALIFEYIDRIYSIVRPRRLLYMAIDGVAPRAKMNQQRSRRFRASKEMAEKEASIEEQRNRLMAEGIAVPPKKKEEAHFDSNCITPGTPFMARLADALRYYIHDRVTNDASWANIEIILSDANVPGEGEHKIMDYVRKQRGNPAHDPNTVHCLCGADADLIMLGIATHEANFNIIREEFVPNQPRACDLCGQYGHELKECRGAENETDLGDDYCKPEQREKNFIFLRIPVLREYLEKELSMPNLPFKFDVERALDDWVFLCFFVGNDFLPHLPSLEIREGAIDRLIKLYKEMVYQMKGYLTKDGIPELDRVEMIMKGLGRVEDEIFKRRQQDEERFQARMCREESPADIASRKRKAEQPLIKPEEEEDEGPKDDIRLYESGWKDRYYRAKFDVGSDDIEFRHRVAWAYVEGLCWVLRYYYQGCASWDWYFPYHYAPFASDFETVGEFQPDFTRPTKPFNPLEQLMSVFPAASKQHLPVEWQKLMIQDDSPIIDLYPADFRIDLNGKKYAWQGVALLPFVDETRLLATLQSVYPTLTAEEKQRNTRGPNRIFIGRNHKSFEFFQQVAESKSDDLVPLDPTLLNGVSGKIAYDSTATAPGLPFVSPVNHDECQDLPTNCGICVLYEDPEYPQDYIFPALRLDGAKEPEKTLKPDDWNDRRDGRYQPQVGFNRNAPRGSLDQSGHRQVHHYVRGGGGGGGGYRGNSYDDRRGGGGGGGGYNDRQDFGRNYGGRDGGGPQRYHDQQQQRQGGYQGGGYGGGYGGGGGGGGGGGGGSYHQPYNQDQRRGGRGGGGGPPGYQRPPYRGGGGGGYHGNSSWR | not soluble
MDQLSAMRAFVRVVETGSFSATGKEMNTSQTTISKKVAALENQIGVKLLTRSSRDHSLTPAGSDYYQTCVNILSELDEVEAKVRSKATLPQGSIRITAPVAFGRFLLAPIVAEFFQHYPDIKIDLLLNDKHVNLISEGIDVAIRAKNLEDSSLVARHLLDNPMYLFASPDYLEQYGEPKHPNELSTHNCLIYSGLQDAHIWNFNHGEKEYSVPVKGNFQSDNGDVLLDVALTGVGIVSLPIWMAKAHLTSGHLRQIMTKYSGQQLPINAIYPQRRYTPLKVRCFIDFLKQKLSE | not soluble
MLKLPPLSLYIHIPWCVQKCPYCDFNSHALKGDVPHQEYVDHLLADLDADLPLAGGRALHSIFIGGGTPSLLSAEAMQALLDGVRARIPLTPDAEITMEANPGTVEADRFSGYQRAGINRISIGVQSFDPQKLTRLGRIHGPEEAKRAAQLATGLKLRSFNLDLMHGLPDQSLDEALDDLRQAIALNPPHLSWYQLTIEPNTLFSSRPPTLPDDDALWDIYEQGHALLSAAGYEQYETSAYAKPGYQCQHNLNYWRFGDYLGIGCGAHGKLTFSDGHILRTVKVRHPRGYMQGTYMDKQHDVANDDRPFEFFMNRFRLLEAAPRADFTAYTGLEEHSIRPQLDQALAQGYLTETATHWQITEHGKLFLNSLLELFLAEELEHHHHHH | not soluble
MGLDKGKQQTAKKPGFNCKPFEFEISSTKFQIPNDKPLKYTLKCTADEKQDVIIQVHSVFFEIVGARRKHGVTSQEFHVLGKNEEMTFEIGLKDLTNVSYDNFEHAQLASAAGFITFTHYKSSRDDDSDASWGPNKNLLIVITDGMEEVGFWKKKLSVETETDEMKKVKEEFGVKLEGEKKYEEIDKMEMDRMRKEIGKNQSARDDGFAPIKDMHKKYLKEKYECVIS | soluble
MTLDDSSLQKFGFIKRETLGSINIDPLQTGGLLTGAAKQALVEWGDGYSVCDFCGGVLDLVKKPPIHDFVHKALPEFLGCDEARVTNGARESKFAVMHSMGKPGDWVVLDGLAHYSSYVAAERAGLNIEVVPHAGSPEYHLDPGRYGKAIEEVTKENGKPPVLALVTYPDGSYGNIPDAAKIASVCHEYDVPLLLNGAYSVGRMPVSAKEIGADFIVGSGHKSMAASGPVGVLGVSEEYAPVVFRKSVHNKVKEIELLGCTARGATVMTLMASFPEVVKRTRNWDQEVENARWFSSRLEGMGFIQRGQKPHSHDLMFFEAPGFYEISQKVKNGRYFLYRELKERNIHGIKSGLTKYFKLSTFGLGKEKLGTVADAFEDILKKYENI | not soluble
MGSDKIHHHHHHMELTGHMKNNRYSIFRNAICIAATAGMLFGCGPDKKPVEKVAEEVVLQPMVTPDFNSDSSYEYVSRQVAFGPRVPNTKPHMDCGEYLAKFFTKHGGWVYRQQFSAKAFDGTDLRLKNIIVSYNQKATKRILLAAHWDTRPFADQDEVDPKKPIDGANDGASGVGILMELARVINLAEKKPDVGFDIILFDGEDYGQPMYYPGPYQNDSWCLGSQYWAKHKFPANYSAYYGILLDMVGAKDATFAKEGVSVENAPSVVNNVWTTAARLGYGKHFINVMSQPITDDHTYINKLALIPMIDIIEYENSDDVYFGSYWHTHNDNMNIIDKNTLKAVGQTLIEVLYREKL | not soluble
MLLPTPEDLKKRRNELGLTQSDLAKRAGVSQPLIARIESGDVDPRLSTVRKILDAFEEAEKERQILIRDLMHSPVLHVSPEDSVEEVVNLMHVHGFSQIPVLDRGIPVGSVSEDMIVRLMGESKKKPISQLKVSGIMGESFPTVSPGISISVVSHILEGNPAVLVVEKGTVVGVVTKHDVMKLLQGQ | not soluble
MSSGKRRNPLGLSLPPTVNEQSESGEATAEEATATVPLEEQLKKLGLTEPQTQRLSEFLQVKEGIKELSEDMLQTEGELGHGNGGVVNKCVHRKTGVIMARKLVHLEIKPSVRQQIVKELAVLHKCNSPFIVGFYGAFVDNNDISICMEYMDGLSLDIVLKKVGRLPEKFVGRISVAVVRGLTYLKDEIKILHRDVKPSNMLVNSNGEIKLCDFGVSGMLIDSMANSFVGTRSYMAPERLTGSHYTISSDIWSFGLSLVELLIGRYPVPAPSQAEYATMFNVAENEIELADSLEEPNYHPPSNPASMAIFEMLDYIVNGPPPTLPKRFFTDEVIGFVSKCLRKLPSERATLKSLTADVFFTQYADHDDQGEFAVFVKGTINLPKLNP | not soluble
MSLGHPVDTFRRENKALRESAARLQKAMNGVLETADDGDASARLLEWRQALNELQDVDKHYQRKEHLLSTCLERHGITGPSKVMWGKDDQIRELLKDTSVALRQSDTSVAELKVLAATTGAAAAGAVHEMIYKEEQILLPICLERFTADEWAEIWASSPRYGWCLVEPRQGYKPFTSEAAGRASVDGGVSLPTGALALEQLIAIFSTLPVDLTFVDANDRVAFFSEGPSRVFARSRTIVGRMVQNCHPPRSVDVVERILSDFREGRQNVAEFWLQFVGRFVHIRYFAVRSEDGRYLGTLEVTQDVGPIRALEGERRLLEYAEPSEGHHHHHH | not soluble
MEQVIAQVIKRQQTEERPPDVLSQQTTKYEKRNSASLRKRKNSSKLYLKTDQNWMALREKLASNSIHDKGKYRQKRESNVTCFKSGVESGIQNSSVRSRETQVTFCDGTVPSQGLELANSKSTAEISSRNEIPRLTKVVALDCEFVGVGKLGKEHSLARVSIVNFKGEVLYDKYVLNDKEPVVDYRTSVSGIRPEHLRSSDAVSFEQAQRDVYSIIRNRILVGHAIHHDMHALLLSHPRKLIRDTSKWRGLRSHHLSRKTPSLRKLAQEILGIRIQDGEHDSVEDARATLMIYKRFAKEWEMELQTKKVKLARKKHR | soluble
